Laboratory results taken from patent US20200239537A1 (GOVERNORS OF THE UNIVERSITY OF ALBERTA, published 2020).
*1 amine or outer side, *2 acyl side, *3 side chain or, on linkers, in order; H or OH if unused. Where no end group is shown, it is not given here. [ ]: non-standard residue; d: D form. The star is where a group is joined. azaArg = aza-arginine, alpha-carbon replaced by nitrogen, N=C(N)NCCCN(N[*:1])C(=O)[*:2]; Phe(4-Br) = N[C@@H](Cc1ccc(Br)cc1)C(=O)O; azaLeu = CC(C)CN(N[*:1])C(=O)[*:2]; Palmitoyl = CCCCCCCCCCCCCCCC(=O)*; αMeR = C[C@](N)(CCCNC(=N)N)C(=O)O; NMeL = CN[C@@H](CC(C)C)C(=O)O; αMeL = CC(C)C[C@](C)(N)C(=O)O; Nle = CCCC[C@H](N)C(=O)O; Aib = CC(C)(N)C(=O)O

B1: pyr-1-apelin-13 A2 (4) (peptide)
peptide: XRPRLSHKGPXXX
modifications: pGlu at 1; Nle at 11; Aib at 12; paraBrPhe at 13
notes: Synthetic ACE2-resistant analogue; also called parent peptide 4; none (A2)
B2: apelin-17 (2) (peptide)
peptide: KFRRQRPRLSHKGPMPF
notes: Native isoform; apelin residues 61-77; also called native apelin-17; native isoform 2
B3: apelin-17 A2 (5) (peptide)
peptide: KFRRQRPRLSHKGP[Nle][Aib][Phe(4-Br)]
notes: Synthetic ACE2-resistant analogue; also called parent peptide 5
B4: PEG-NMe17A2 (59) (peptide)
peptide: KFRRQRPR[NMeL]SHKGP[Nle][Aib][Phe(4-Br)]
modifications: not fully specified (N-terminus); numbers in words are those of the source; also: N-terminal PEG from Fmoc-(PEG)6 propionic acid, Fmoc removal not given here

Columns and labels:
[1] = target: T1, recombinant human APJ receptor (Chem-5-APJ cells) (human, UniProt P35414 1-380); assay: cell-based or functional assay
T1 sequence (looked up): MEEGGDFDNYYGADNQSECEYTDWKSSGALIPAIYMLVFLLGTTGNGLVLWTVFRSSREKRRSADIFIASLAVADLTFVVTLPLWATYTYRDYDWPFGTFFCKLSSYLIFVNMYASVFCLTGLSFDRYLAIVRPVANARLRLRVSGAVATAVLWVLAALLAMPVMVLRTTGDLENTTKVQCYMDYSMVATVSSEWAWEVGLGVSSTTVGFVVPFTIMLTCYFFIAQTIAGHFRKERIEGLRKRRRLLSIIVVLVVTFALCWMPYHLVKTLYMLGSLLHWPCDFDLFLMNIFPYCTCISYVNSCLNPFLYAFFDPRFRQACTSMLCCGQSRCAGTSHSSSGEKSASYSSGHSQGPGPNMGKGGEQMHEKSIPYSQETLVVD

[2] = target: T1, recombinant human APJ receptor …; assay: cell-based or functional assay; remark: listed apart in the source
[3] = target: T2, wild-type rat apelin receptor tagged at its C-terminus with EGFP (rat, UniProt Q9JHG3 1-377); assay: displacement of 0.2 nM [125I]-pyr-1-apelin-13; membranes of CHO cells expressing rat apelin receptor-EGFP
T2 construct: whole, on cells; Used as crude membrane preparations from CHO cells stably expressing the receptor; also called wild-type rat apelin receptor-EGFP; not shown: EGFP tag at the C-terminus
T2 sequence (looked up): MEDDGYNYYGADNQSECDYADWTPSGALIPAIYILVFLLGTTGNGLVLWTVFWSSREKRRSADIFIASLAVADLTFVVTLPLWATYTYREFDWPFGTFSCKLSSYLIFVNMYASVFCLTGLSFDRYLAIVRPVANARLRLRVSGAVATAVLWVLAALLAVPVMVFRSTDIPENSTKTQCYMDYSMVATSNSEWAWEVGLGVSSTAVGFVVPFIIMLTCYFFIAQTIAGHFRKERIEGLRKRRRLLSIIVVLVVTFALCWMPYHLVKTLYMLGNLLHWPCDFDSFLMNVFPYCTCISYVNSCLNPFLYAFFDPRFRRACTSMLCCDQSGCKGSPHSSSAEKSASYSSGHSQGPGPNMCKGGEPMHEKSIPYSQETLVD
Description: This experiment evaluated the ability of peptides of the present embodiments to bind to the wild-type rat apelin receptor, in order to examine the impact of synthetic modification within the critical RPRL motif of the apelin peptides.
The reaction was stopped by adding 4 mL of cold binding buffer, filtered on Whatman GF/C filters and washed with 5 mL of cold binding buffer. Radioactivity was then counted using a Wizard 1470 Wallac gamma counter (Perkin Elmer, Turku, Finland). Binding experiment data were analyzed with GraphPad Prism.

Binder	EC50 (nM), Ca2+ mobilization assay [2]	Ki [3]	times less potent than native 2 [3]	further results
RQRPR[NMeL]SHKGP[Nle][Aib][Phe(4-Br)] [Apelin-NMe14A2 (55)]	176 nM	–	–	EC50 of Ca2+ mobilization, fold against the 17-mers [1]: ~200 fold
KFRRQRPR[αMeL]SHKGP[Nle][Aib][Phe(4-Br)] [α-MeLeu9-apelin-17 A2 (15)]	–	0.18 nM	~3 fold	–
KFRRQRP[azaArg]LSHKGP[Nle][Aib][Phe(4-Br)] [azaArg8-apelin-17 A2 (17)]	–	0.14 nM	~3 fold	–
KFRRQRPRLSHKGP[Nle][Aib][Phe(4-Br)] (not fully specified (N-terminus); also: Fmoc removal from PEG not given here) [PEG-17A2 (57)]	6.3 nM	–	–	–
KFRRQRP[αMeR]LSHKGP[Nle][Aib][Phe(4-Br)] (also called α-MeArc8-apelin-17 A2) [α-MeArg8-apelin-17 A2 (13)]	–	0.13 nM	~3 fold	–
B1	–	2 nM	–	factor of weaker affinity compared to 1 [3]: 6 fold
B2	–	0.053 nM	–	–
KFRRQRPR[NMeL]SHKGP[Nle][Aib][Phe(4-Br)] (also called Apelin-NMe17A2; NMeLeu-17A2) [N-MeLeu9-apelin-17 A2 (11)]	–	0.45 nM	~3 fold	–
B3	4 nM	0.19 nM	–	–
KFRRQRPR[dL]SHKGP[Nle][Aib][Phe(4-Br)] [D-Leu9-apelin-17 A2 (9)]	–	0.14 nM	~3 fold	–
Palmitoyl-KFRRQRPR[NMeL]SHKGP[Nle][Aib][Phe(4-Br)] [PALM-NMe17A2 (58)]	11.3 nM	–	–	–
Palmitoyl-KFRRQRPRLSHKGP[Nle][Aib][Phe(4-Br)] [PALM-17A2 (56)]	2.6 nM	–	–	–
KFRRQRPR[azaLeu]SHKGP[Nle][Aib][Phe(4-Br)] [azaLeu9 apelin-17 A2 peptide (19)]	–	0.15 nM	~3 fold	–
RQRPRLSHKGP[Nle][Aib][Phe(4-Br)] [Apelin-14A2 (54)]	568 nM	–	–	EC50 of Ca2+ mobilization, fold against the 17-mers [1]: ~200 fold
B4	2.5 nM	–	–	–
